Earlier results in article PMC11426987.
Like-named read-outs stand apart in the source and are kept apart here.

Assays:
[1] = target: protein S (Homo sapiens) (UniProt P07225)
[2] = target: protein S (Homo sapiens) (UniProt P07225); remark: listed apart in the source

UniProt P07225, sequence (P07225 42-676): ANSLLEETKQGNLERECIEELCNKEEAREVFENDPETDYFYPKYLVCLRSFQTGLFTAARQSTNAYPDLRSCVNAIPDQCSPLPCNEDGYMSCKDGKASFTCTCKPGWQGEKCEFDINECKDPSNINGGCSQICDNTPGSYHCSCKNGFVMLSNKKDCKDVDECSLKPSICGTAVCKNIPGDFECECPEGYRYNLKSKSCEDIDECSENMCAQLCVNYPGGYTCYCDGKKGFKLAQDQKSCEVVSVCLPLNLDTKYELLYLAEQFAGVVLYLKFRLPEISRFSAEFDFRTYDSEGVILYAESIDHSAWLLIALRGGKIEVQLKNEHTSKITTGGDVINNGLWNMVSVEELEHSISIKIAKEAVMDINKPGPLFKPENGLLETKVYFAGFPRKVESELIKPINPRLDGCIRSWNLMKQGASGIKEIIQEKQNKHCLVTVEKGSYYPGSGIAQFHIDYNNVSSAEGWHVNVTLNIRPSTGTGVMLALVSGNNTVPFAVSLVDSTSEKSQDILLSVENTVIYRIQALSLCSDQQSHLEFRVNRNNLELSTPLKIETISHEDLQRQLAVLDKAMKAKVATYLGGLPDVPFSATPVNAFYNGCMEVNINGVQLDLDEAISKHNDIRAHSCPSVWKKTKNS

Kd [1] [nM] | Kd [2] [nM] | Substance
> 1000 |  | TFPI (from UniProt P10646)
 | 20 | TFPIα (from UniProt P10646)
